Assay results taken from US20150018285A1 (CARMEL HAIFA UNIVERSITY ECONOMIC, published 2015).

How the values were obtained:
[1] = biological target: T1, B-cell CLL/lymphoma 2 (Bcl-2) (human, UniProt P10415 1-239); test: immunoprecipitation of transfected HeLa lysates with anti-Bcl-2 antibody, Western blot with anti-ARTS (FIG. 11A)
T1 construct: Used as endogenous Bcl-2 (HeLa, BT-549) or from a transfected Bcl-2 construct; also called Bch 2; endogenous Bcl-2

[2] = biological target: T2, X-linked inhibitor of apoptosis protein (XIAP) (human, UniProt P98170 1-497); test: IP of the mitochondrial fraction with anti-Bcl-2 antibody, Western blot (FIG. 4E)
T2 construct: Endogenous XIAP in cell lysates; also called IAP3; BIRC
Experimental: Mitochondrial fraction was immunoprecipitated using anti-Bcl-2 antibody. The precipitate was analyzed by Western blotting.

[3] = biological target: T3, B-cell lymphoma-extra large (Bcl-xL) (human, UniProt Q07817 1-233); test: IP with monoclonal anti-ARTS antibody from HeLa wt lysate, Western blot (FIG. 9); binding still seen after 24 h of ABT-263
T3 construct: also called Bch xL

[4] = biological target: T2, X-linked inhibitor of apoptosis protein …; test: IP with anti-ARTS monoclonal antibody from COS-7 cells transfected with the 6-Myc-ARTS construct; the partner is endogenous in COS-7 (FIG. 4B)
Experimental: FIG. 4B. […] The precipitate was analyzed by Western blotting.

T2 sequence (P98170 whole entry): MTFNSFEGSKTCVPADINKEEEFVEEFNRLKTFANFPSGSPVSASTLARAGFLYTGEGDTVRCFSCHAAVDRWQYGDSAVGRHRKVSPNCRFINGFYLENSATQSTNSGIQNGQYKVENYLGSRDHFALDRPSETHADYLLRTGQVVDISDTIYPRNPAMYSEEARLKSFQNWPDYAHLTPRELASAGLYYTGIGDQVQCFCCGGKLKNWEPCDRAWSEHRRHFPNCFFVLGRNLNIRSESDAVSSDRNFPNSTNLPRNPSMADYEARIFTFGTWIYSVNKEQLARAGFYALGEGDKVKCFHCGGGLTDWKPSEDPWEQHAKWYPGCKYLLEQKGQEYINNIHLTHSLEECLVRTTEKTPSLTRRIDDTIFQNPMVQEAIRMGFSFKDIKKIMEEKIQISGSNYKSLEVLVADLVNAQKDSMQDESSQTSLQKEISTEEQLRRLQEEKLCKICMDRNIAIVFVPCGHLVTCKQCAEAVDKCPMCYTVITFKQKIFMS
T3 sequence (Q07817 whole entry G70A): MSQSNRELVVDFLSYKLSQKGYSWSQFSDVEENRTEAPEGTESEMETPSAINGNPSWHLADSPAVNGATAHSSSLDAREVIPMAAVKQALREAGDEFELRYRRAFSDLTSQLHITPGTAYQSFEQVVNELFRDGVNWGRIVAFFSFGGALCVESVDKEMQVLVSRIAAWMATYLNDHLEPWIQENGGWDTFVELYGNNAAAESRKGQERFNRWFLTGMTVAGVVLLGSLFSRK
T1 sequence (P10415 whole entry): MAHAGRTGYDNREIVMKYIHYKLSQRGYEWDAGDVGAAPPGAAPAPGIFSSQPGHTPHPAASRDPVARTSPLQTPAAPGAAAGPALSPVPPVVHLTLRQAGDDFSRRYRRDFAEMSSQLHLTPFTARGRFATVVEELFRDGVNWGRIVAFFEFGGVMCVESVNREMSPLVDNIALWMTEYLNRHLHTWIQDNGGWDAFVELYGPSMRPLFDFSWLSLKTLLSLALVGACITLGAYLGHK

B1: 128 amino acids N' terminus deletion mutated ARTS (other)
chain: MVAGESGLGKSTLVNSLFLTDLYRDRKLLGAEERIMQTVEITKHAVDIEEKGVRLRLTIVDTPGFGDAVNNTECWKPVAEYIDQQFEQYFRDESGLNRKNIQDNRVHCCLYFISPFGHGYGPSLRLLAPPGAVKGTGQEHQGQGCH
**Q.** Does B1 bind [1]?
**A.** no binding

B2: Apoptosis Related Protein in the TGF-beta Signaling Pathway (ARTS) (other)
chain: MIKRFLEDTTDDGELSKFVKDFSGNASCHPPEAKTWASRPQVPEPRPQAPDLYDDDLEFRPPSRPQSSDNQQYFCAPAPLSPSARPRSPWGKLDPYDSSEDDKEYVGFATLPNQVHRKSVKKGFDFTLMVAGESGLGKSTLVNSLFLTDLYRDRKLLGAEERIMQTVEITKHAVDIEEKGVRLRLTIVDTPGFGDAVNNTECWKPVAEYIDQQFEQYFRDESGLNRKNIQDNRVHCCLYFISPFGHGYGPSLRLLAPPGAVKGTGQEHQGQGCH
notes: also called FL ARTS; full length ARTS
**Q.** Does B2 bind [2]?
**A.** binds

**Q.** Does B2 bind [3]?
**A.** binds

B3: 6-Myc-ARTS (other)
chain: MIKRFLEDTTDDGELSKFVKDFSGNASCHPPEAKTWASRPQVPEPRPQAPDLYDDDLEFRPPSRPQSSDNQQYFCAPAPLSPSARPRSPWGKLDPYDSSEDDKEYVGFATLPNQVHRKSVKKGFDFTLMVAGESGLGKSTLVNSLFLTDLYRDRKLLGAEERIMQTVEITKHAVDIEEKGVRLRLTIVDTPGFGDAVNNTECWKPVAEYIDQQFEQYFRDESGLNRKNIQDNRVHCCLYFISPFGHGYGPSLRLLAPPGAVKGTGQEHQGQGCH
notes: Expressed by transient transfection in COS-7 cells; also called pSC2-6Myc ARTS; not shown: 6xMyc tag of pSC2-6Myc
**Q.** Does B3 bind [4]?
**A.** binds
